Test results reported in article PMC6611741 (2019).

Molecular target: Bovine serum albumin (Bos taurus (Bovine), UniProt P02769)
Experiment: EGOTFT (SiMoT), BSA-functionalized gate

Chain of Bovine serum albumin (P02769 25-607): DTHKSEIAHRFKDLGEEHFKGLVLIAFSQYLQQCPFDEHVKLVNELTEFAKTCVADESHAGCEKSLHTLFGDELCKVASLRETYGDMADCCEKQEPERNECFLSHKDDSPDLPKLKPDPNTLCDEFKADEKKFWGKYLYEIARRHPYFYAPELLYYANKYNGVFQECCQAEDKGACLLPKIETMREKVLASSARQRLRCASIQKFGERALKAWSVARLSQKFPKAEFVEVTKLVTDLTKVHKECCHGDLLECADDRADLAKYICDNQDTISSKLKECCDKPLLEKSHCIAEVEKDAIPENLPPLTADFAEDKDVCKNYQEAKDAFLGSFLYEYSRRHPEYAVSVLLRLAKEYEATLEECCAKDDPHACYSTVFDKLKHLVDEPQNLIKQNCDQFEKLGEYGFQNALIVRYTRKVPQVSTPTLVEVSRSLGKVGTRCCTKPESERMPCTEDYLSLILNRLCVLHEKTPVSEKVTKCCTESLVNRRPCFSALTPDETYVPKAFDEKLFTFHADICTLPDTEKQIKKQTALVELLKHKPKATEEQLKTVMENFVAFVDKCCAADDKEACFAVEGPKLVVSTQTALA

B1: Human C-reactive protein (protein)
chain: QTDMSRKAFVFPKESDTSYVSLKAPLTKPLKAFTVCLHFYTELSSTRGYSIFSYATKRQDNEILIFWSKDIGYSFTVGGSEILFEVPEVTVAPVHICTSWESASGIVEFWVDGKPRVRKSLKKGYTVGAEASIILGQEQDSFGGNFEGSQSLVGDIGNVNMWDFVLSPDEINTIYLGGPFSPNVLNWRALKYEVQGEVFTKPQLWP
B1: no binding.
